{"source": "patent US20170314054A1", "about": "(ROCHE SEQUENCING SOLUTIONS, published 2017)", "key": {"[1]": {"target": "T1, Z-GGGDYALQGGGG (SEQ ID NO: 86)", "T1 chain": "GGGDYALQGGGG"}, "[2]": {"target": "T2, Z-GGGARSKLGGGG (SEQ ID NO: 80)", "T2 chain": "GGGARSKLGGGG"}, "[3]": {"target": "T3, Z-GGGDEKPDGGGG (SEQ ID NO: 81)", "T3 chain": "GGGDEKPDGGGG"}, "[4]": {"target": "T4, microbial transglutaminase from Streptomyces mobaraensis (MTG) (Streptomyces mobaraensis, UniProt P81453 77-407)", "T4 sequence (looked up)": "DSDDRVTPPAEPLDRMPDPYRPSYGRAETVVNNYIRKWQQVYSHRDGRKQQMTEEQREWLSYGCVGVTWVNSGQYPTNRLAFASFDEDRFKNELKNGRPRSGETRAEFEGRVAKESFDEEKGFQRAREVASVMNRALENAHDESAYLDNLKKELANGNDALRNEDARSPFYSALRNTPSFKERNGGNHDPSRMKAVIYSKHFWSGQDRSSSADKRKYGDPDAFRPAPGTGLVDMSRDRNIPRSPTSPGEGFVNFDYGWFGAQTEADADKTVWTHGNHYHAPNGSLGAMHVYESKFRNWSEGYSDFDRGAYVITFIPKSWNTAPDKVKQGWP", "experiment": "cell-based or functional assay"}}, "note": "No end group written: not given here."}
{"binder": "microbial transglutaminase from Streptomyces mobaraensis (MTG) (protein) DSDDRVTPPAEPLDRMPDPYRPSYGRAETVVNNYIRKWQQVYSHRDGRKQQMTEEQREWLSYGCVGVTWVNSGQYPTNRLAFASFDEDRFKNELKNGRPRSGETRAEFEGRVAKESFDEEKGFQRAREVASVMNRALENAHDESAYLDNLKKELANGNDALRNEDARSPFYSALRNTPSFKERNGGNHDPSRMKAVIYSKHFWSGQDRSSSADKRKYGDPDAFRPAPGTGLVDMSRDRNIPRSPTSPGEGFVNFDYGWFGAQTEADADKTVWTHGNHYHAPNGSLGAMHVYESKFRNWSEGYSDFDRGAYVITFIPKSWNTAPDKVKQGWP", "values": [{"measurement": "KM (GLDH-coupled MTG activity assay)", "setting": "[1]", "result": 970, "unit": "µM"}, {"measurement": "Vmax (GLDH-coupled MTG activity assay)", "setting": "[1]", "result": 0.46, "unit": "nmol/s"}, {"measurement": "difference in MTG catalytic efficiency against standard QG-substrate", "setting": "[1]", "result": "a difference in MTG catalytic efficiency of at least 3-fold"}, {"measurement": "kcat (GLDH-coupled MTG activity assay)", "setting": "[1]", "result": 6, "unit": "s⁻¹"}, {"measurement": "kcat/KM (GLDH-coupled MTG activity assay)", "setting": "[1]", "result": 6200, "unit": "M⁻¹ s⁻¹"}, {"measurement": "KM (GLDH-coupled MTG activity assay, 100 µM Z-GGGDYALQGGGG as amine acceptor)", "setting": "[2]", "result": 66.8, "unit": "µM"}, {"measurement": "Vmax (GLDH-coupled MTG activity assay, 100 µM Z-GGGDYALQGGGG as amine acceptor)", "setting": "[2]", "result": 5.1, "unit": "pmol/s"}, {"measurement": "difference in MTG catalytic efficiency against GGGDEKPDGGGG (SEQ ID NO: 81)", "setting": "[2]", "result": "an apparent difference in MTG catalytic efficiency of at least 10-fold was observed"}, {"measurement": "kcat (GLDH-coupled MTG activity assay, 100 µM Z-GGGDYALQGGGG as amine acceptor)", "setting": "[2]", "result": 0.066, "unit": "s⁻¹"}, {"measurement": "kcat/KM (GLDH-coupled MTG activity assay, 100 µM Z-GGGDYALQGGGG as amine acceptor)", "setting": "[2]", "result": 990, "unit": "M⁻¹ s⁻¹"}, {"measurement": "stated: almost no MTG turnover (rate of NADH oxidation, GLDH-coupled assay, 100 uM Z-GGGDYALQGGGG as amine acceptor)", "setting": "[3]", "result": "filled circles: rate stays at about 0 pmol/s from 0 to 200 uM and reaches only about 0.2 pmol/s at 500 uM"}]}
{"binder": "QRTKL (also: flanked by G:S (3:1) linkers on peptide array)", "note": "[QRTKL (SEQ ID NO: 77)]", "values": [{"measurement": "A (array MTG labeling signal with Z-Gln-Gly-CAD-biotin)", "setting": "[4]", "result": 13.3}]}
{"binder": "GYKLK (also: flanked by G:S (3:1) linkers on peptide array)", "note": "[GYKLK (SEQ ID NO: 78)]", "values": [{"measurement": "A (array MTG labeling signal with Z-Gln-Gly-CAD-biotin)", "setting": "[4]", "result": 13.3}]}
